Measured values: article PMC2173304

Biological target: peptide corresponding to the cytoplasmic tail of lysosomal acid phosphatase (LAP) (UniProt P11117)
Test: SPR

Sequence of UniProt P11117 (P11117 402-423): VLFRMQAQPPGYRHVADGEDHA

- fold decrease in affinity against untreated AP2: > 4 fold
Substance: AP2 complex from pig brain, dephosphorylated with calf intestinal alkaline phosphatase
